Experimental data as given in publication PMC5497811 (Nature, 2017).
Each block holds one molecule with its values, some of them ahead of it.

B1: BT1763 (SusC-like), full-length, in freshly purified BT1762-1763 complex (natural protein, Bacteroides thetaiotaomicron, UniProt Q8A6W3 26-1041, looked up)
chain: GQNITVKGNVTSKTDGQPIIGASVVETTATTNGTITDFDGNFTLSVPVNSTLKITYIGYKPVTVKAAAIVNVLLEEDTQMVDEVVVTGYTTQRKADLTGAVSVVKVDEIQKQGENNPVKALQGRVPGMNITADGNPSGSATVRIRGIGTLNNNDPLYIIDGVPTKAGMHELNGNDIESIQVLKDAASASIYGSRAANGVIIITTKQGKKGQIKINFDASVSASMYQSKMNVLNTEQYGRAMWQAYVNDGENPNGNALGYAYNWGYNADGNPVLYGMTLSKYLDSKNTMPVADTDWFDEITRTGVIQQYNLSVSNGSEKGSSFFSLGYYKNLGVIKDTDFDRFSARMNSDYKLIDDILTIGQHFTLNRTSEVQAPGGIIETALDIPSAIPVYASDGSWGGPVGGWPDRRNPRAVLEYNKDNRYTYWRMFGDAYVNLTPFKGFNLRSTFGLDYANKQARYFTYPYQEGTQTNNGKSAVEAKQEHWTKWMWNAIATYQLEVGKHRGDVMIGMELNREDDSHFSGYKEDFSILTPDYMWPDAGSGTAQAYGAGEGYSLVSFFGKMNYSYADRYLLSLTLRRDGSSRFGKNHRYATFPSVSLGWRITQENFMKELTWLDDLKLRASWGQTGNQEISNLARYTIYAPNYGTTDSFGGQSYGTAYDITGSNGGGVLPSGFKRNQIGNDNIKWETTTQTNVGIDFSLFKQSLYGSLEYYYKKATDILTEMAGVGVLGEGGSRWINSGAMKNQGFEFNLGYRNKTAFGLTYDLNGNISTYRNEILELPETVAANGKFGGNGVKSVVGHTYGAQVGYIADGIFKSQDEVDNHATQEGAAVGRIRYRDIDHNGVIDERDQNWIYDPTPSFSYGLNIYLEYKNFDLTMFWQGVQGVDIISDVKKKSDFWSASNVGFLNKGTRLLNAWSPTNPNSDIPALTRSDTNNEQRVSTYFVENGSFLKLRNIQLGYTVPAVISKKMRMDRLRFYCSAQNLLTIKSKNFTGEDPENPNFSYPIPVNITFGLNIGF

Tests used:
[1] = target: BT2264 (SusC-like TonB-dependent transporter) (Bacteroides thetaiotaomicron); experiment: crystal structure
native MS = target: the molecule itself; experiment: native MS
[2] = target: B1; experiment: SDS-PAGE of non-boiled samples

stoichiometry N [1]: 2
Molecule: BT2264 (SusC-like TonB-dependent transporter) (natural protein)

Molecule: B1
stoichiometry N (native MS): 2

binding result [2]: binds
B2: BT1762 (SusD-like) with C-terminal 4xAla linker and 6xHis-tag, native from B. theta (natural protein, Bacteroides thetaiotaomicron, UniProt Q8A6W4 19-570, looked up)
chain: CDDFLDRQVPQGIVTGDQIASPEYVDNLVISAYAIWATGDDINSSFSLWNYDVRSDDCYKGGSGTEDGGVFNALEISKGINTTDWNINDIWKRLYQCITRANTALQSLDQMDEKTYPLKNQRIAEMRFLRGHAHFMLKQLFKKIVIVNDENMEPDAYNELSNTTYTNDEQWQKIADDFQFAYDNLPEVQIEKGRPAQAAAAAYLAKTYLYKAYRQDGADNALTGINEEDLKQVVKYTDPLIMAKGGYGLETDYSMNFLPQYENGAESVWAIQYSINDGTYNGNLNWGMGLTTPQILGCCDFHKPSQNLVNAFKTDSQGKPLFSTYDNENYEVATDNVDPRLFHTVGMPGFPYKYNEGYIIQKNDDWSRSKGLYGYYVSLKENVDPDCDCLKKGSYWASSLNHIVIRYADVLLMRAEALIQLNDGRITDAISLINEVRSRAAGSTMLIFNYKEDYGVNFKVTPYDLKAYAQDEAMKMLKWERRVEFGMESSRFFDLVRWGEAKDVINAYYVTEASRCSIYKNAGFTENKNEYLPVPFEQISASNGNYTQNFGW
